Measured values published in patent US20250320284A1 (AC IMMUNE, published 2025).

T1: mouse ASC (mouse, UniProt Q9EPB4 1-193)
T1 construct: recombinant mASC in ELISA and SPR; endogenous ASC of J774.A1 cells in Western blot and immunofluorescence; also called mASC
T1 sequence: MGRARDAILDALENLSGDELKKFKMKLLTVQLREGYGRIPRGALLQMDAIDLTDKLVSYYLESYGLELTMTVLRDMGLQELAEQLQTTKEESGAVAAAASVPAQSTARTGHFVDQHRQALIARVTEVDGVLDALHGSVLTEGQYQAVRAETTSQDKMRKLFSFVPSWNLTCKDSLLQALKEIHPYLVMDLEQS

T2: CARD domain of human ASC (human, UniProt Q9ULZ3 107-195)
T2 construct: biotinylated in BLI; also called hCARD; human CARD
T2 sequence: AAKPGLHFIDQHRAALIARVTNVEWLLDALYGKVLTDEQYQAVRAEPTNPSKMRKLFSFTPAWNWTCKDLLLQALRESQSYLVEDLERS


Key:
[1] = molecular target: T3, human ASC (apoptosis associated speck-like protein containing a caspase-recruitment domain) (human, UniProt Q9ULZ3 1-195); assay: ELISA, coated hASC;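 note: antibody binding to plate-coated recombinant human ASC, read as phosphatase substrate absorbance, EC50 from four-parameter variable-slope fit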
T3 construct: recombinant hASC in ELISA and SPR; endogenous ASC (cytoplasmic or specks) in Western blot and immunofluorescence; also called hASC; PYCARD

PYD domain of human ASC [2] = molecular target: T4, PYD domain of human ASC (human, UniProt Q9ULZ3 1-91, limits assumed); assay: ELISA, coated hPYD;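 note: monoclonal antibody binding to plate-coated human ASC PYD measured by ELISA, with a phosphatase substrate absorbance read-out and EC50 from a variable slope curve fit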
T4 construct: biotinylated in BLI; His/MBP-tagged in the alanine ELISA; also called hPYD; human PYD
T4 sequence (Q9ULZ3 1-91 limits assumed): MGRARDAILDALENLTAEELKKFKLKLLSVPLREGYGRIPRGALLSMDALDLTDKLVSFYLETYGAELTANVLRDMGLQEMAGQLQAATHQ

mouse ASC [3] = molecular target: T1, mouse ASC; assay: ELISA, coated mASC
[4] = molecular target: T3, human ASC (apoptosis associated …); assay: cell-based or functional assay
mouse ASC [5] = molecular target: T1, mouse ASC; assay: cell-based or functional assay
[6] = molecular target: T3, human ASC (apoptosis associated …); assay: cell-based or functional assay; remark: listed apart in the source
mouse ASC [7] = molecular target: T1, mouse ASC; assay: cell-based or functional assay; remark: listed apart in the source
[8] = molecular target: T3, human ASC (apoptosis associated …); assay: SPR affinity mode, mAb captured;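 note: Single-cycle SPR kinetics with mAbs captured on goat anti-mouse antibody, double-referenced against blank flow cell and buffer cycle, fitted by a 1:1 kinetic model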
mouse ASC [9] = molecular target: T1, mouse ASC; assay: SPR affinity mode, mAb captured;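 note: Single-cycle SPR kinetics with mAbs captured on goat anti-mouse antibody, double-referenced against blank flow cell and buffer cycle, fitted by a 1:1 kinetic model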
PYD domain of human ASC [10] = molecular target: T4, PYD domain of human ASC; assay: BLI binning on PYD, competitor 22D3A6-AB1
PYD domain of human ASC [11] = molecular target: T4, PYD domain of human ASC; assay: BLI binning on PYD, competitor 23E5F7-AB2
PYD domain of human ASC [12] = molecular target: T4, PYD domain of human ASC; assay: BLI binning on PYD, competitor 26A1G2-AB1
PYD domain of human ASC [13] = molecular target: T4, PYD domain of human ASC; assay: BLI binning on PYD, competitor 31F10C5-AB1
PYD domain of human ASC [14] = molecular target: T4, PYD domain of human ASC; assay: BLI binning on PYD, competitor 401H9B7-AB1
PYD domain of human ASC [15] = molecular target: T4, PYD domain of human ASC; assay: BLI binning on PYD, competitor 416E6G4-AB1
PYD domain of human ASC [16] = molecular target: T4, PYD domain of human ASC; assay: BLI binning on PYD, competitor 2610H7D3-AB1
PYD domain of human ASC [17] = molecular target: T4, PYD domain of human ASC; assay: BLI binning on PYD, competitor 2617C3A8-AB1
PYD domain of human ASC [18] = molecular target: T4, PYD domain of human ASC; assay: BLI binning on PYD, competitor 2626B9D3-AB1
CARD domain of human ASC [19] = molecular target: T2, CARD domain of human ASC; assay: sandwich ELISA on MBP-tagged protein captured by anti-MBP antibody, signal as % of hPYD-WT
CARD domain of human ASC [20] = molecular target: T2, CARD domain of human ASC; assay: ELISA, coated hCARD
[21] = molecular target: T3, human ASC (apoptosis associated …); assay: SPR affinity mode, steady-state fit, apparent KD
[22] = molecular target: T3, human ASC (apoptosis associated …); assay: ELISA, coated hASC; ELISA on hASC protein
[23] = molecular target: T3, human ASC (apoptosis associated …); assay: SPR avidity mode, ASC immobilized; SPR avidity mode, hASC covalently immobilized, mAb as analyte;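 for koff: Single-cycle SPR kinetics on Biacore T200, antibodies injected at 1.2–100 nM (3-fold steps), 300 s association, 900 s dissociation, double-referenced, 1:1 kinetic model fit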;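 for kon: Single-cycle SPR kinetics on Biacore T200, antibodies injected at 1.2–100 nM (3-fold steps), 300 s association, 900 s dissociation, double-referenced, 1:1 kinetic model fit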
[24] = molecular target: T3, human ASC (apoptosis associated …); assay: SPR affinity mode, mAb captured; SPR affinity mode, mAb captured by Fc, hASC 2.2-180 nM in solution;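 for koff: Single-cycle SPR kinetics with mAbs captured on goat anti-mouse antibody, double-referenced against blank flow cell and buffer cycle, fitted by a 1:1 kinetic model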
[25] = molecular target: T3, human ASC (apoptosis associated …); assay: SPR avidity mode, ASC immobilized;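 note: Single-cycle SPR kinetics on Biacore T200, antibodies injected at 1.2–100 nM (3-fold steps), 300 s association, 900 s dissociation, double-referenced, 1:1 kinetic model fit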
mouse ASC [26] = molecular target: T1, mouse ASC; assay: ELISA, coated mASC; ELISA on mASC protein
mouse ASC [27] = molecular target: T1, mouse ASC; assay: SPR affinity mode, mAb captured; SPR affinity mode, mAb captured by Fc, mASC in solution;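 for KD: Single-cycle SPR kinetics with mAbs captured on goat anti-mouse antibody, double-referenced against blank flow cell and buffer cycle, fitted by a 1:1 kinetic model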
mouse ASC [28] = molecular target: T1, mouse ASC; assay: SPR avidity mode, ASC immobilized; SPR avidity mode, mASC covalently immobilized, mAb as analyte
CARD domain of human ASC [29] = molecular target: T2, CARD domain of human ASC; assay: sandwich ELISA on MBP-tagged protein captured by anti-MBP antibody, signal as % of hPYD-WT; remark: listed apart in the source
mouse ASC [30] = molecular target: T1, mouse ASC; assay: Western blot, J774.A1 mouse macrophage lysate
mouse ASC [31] = molecular target: T1, mouse ASC; assay: SPR avidity mode, ASC immobilized;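 note: Single-cycle SPR kinetics on Biacore T200, antibodies injected at 1.2–100 nM (3-fold steps), 300 s association, 900 s dissociation, double-referenced, 1:1 kinetic model fit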

| Binder | EC50 [1] [nM] | EC50 (PYD domain of human ASC [2]) [nM] | EC50 (mouse ASC [3]) [nM] | Human ASC polymerization assay, IC50 [4] [nM] | Kd [8] [nM] | koff [8] [s⁻¹] | kon [8] [M⁻¹ s⁻¹] | Kd (mouse ASC [9]) [nM] | koff (mouse ASC [9]) [s⁻¹] | Kd [25] [nM] | koff [25] [s⁻¹] | kon [25] [M⁻¹ s⁻¹] | other results |
| --- | --- | --- | --- | --- | --- | --- | --- | --- | --- | --- | --- | --- | --- |
| ACI-8016-203B12C3-AB1 (antibody, V domains shown) VH: QVQLKQSGPGLVQPSQSLSITCKVSDFSLSHYGVHWVRQSPGKGLEWLGVIWSGGTTEYNEAFISRLTISKDNSKSQILFRMNSLQPADTAIYYCARKGDFYGDYFDYWGQGTTLTVSS VL: DIQMTQTSSSLSASLGDRVTISCRASQDISNYLNWYQQRPDGTVKLLIYYTSKVHSGVPSRFSGSGSGTDFSLTISNLEQEDFATYYCQQGNTRPFTFGGGTKLEIK | – | – | – | – | – | – | – | – | – | – | – | – | binding result (PYD domain of human ASC [2]): no binding; EC50 (CARD domain of human ASC [20]): 0.067 nM; EC50 [22]: 0.1 nM; Kd [23]: 10.2 nM; Kd [24]: 42 nM |
| ACI-8016-416E6G4-AB1 (antibody, V domains shown) VH: QVQLKQSGPGLVQPSQSLSITCTVSGISLSSYGLHWVRQSPGKGLEWLGVIWSGGNTDYSATFISRLSISKDNSKSQVFFKMDSLQVDDTAIYYCARNEVWGQGTSVTVSS VL: not shown | 0.07 | 0.07 | – | – | 14.9 | 0.0025 | 280000 | 14.5 | 0.00053 | 0.85 | 2.7e-05 | 39000 | binding result (CARD domain of human ASC [20]): no binding; EC50 (mouse ASC [26]): 0.07 nM; kon (mouse ASC [27]): 34000 M⁻¹ s⁻¹; Kd (mouse ASC [28]): 4.88 nM; koff (mouse ASC [28]): 0.00013 s⁻¹; kon (mouse ASC [28]): 35000 M⁻¹ s⁻¹ |
| ACI-8019-2314F6H11-AB1 (antibody, V domains shown) VH: QVQVQQSGADLARPGASVKLSCKASGYTFTNYGINWVKQRTGQGLEWIGEIYPKNIDIYYNEKFKGKATLTADKSSSTAYMELRSLTSEDSAVYFCGRSSFGFSGNYAMDYWGQGTSVTVSS VL: DVVMTQTPLSLPVSLGDQASISCRSSQNLIHSNGITYLHWYLQKPGQSPKLLIYKVSNRFSGVPHRFSGSGSGTDFTLKISRVEAEDLGVYFCSQSTHVPWTFGGGTKLEIK | 0.1 | – | 0.2 | – | – | – | – | – | – | 0.91 | 8e-05 | 88000 | Kd (mouse ASC [31]): 16.1 nM |

Continued by falling EC50 [1], values first:

| EC50 [1] [nM] | EC50 (PYD domain of human ASC [2]) [nM] | EC50 (mouse ASC [3]) [nM] | Human ASC polymerization assay, IC50 [4] [nM] | Kd [8] [nM] | koff [8] [s⁻¹] | kon [8] [M⁻¹ s⁻¹] | Kd (mouse ASC [9]) [nM] | koff (mouse ASC [9]) [s⁻¹] | Kd [25] [nM] | koff [25] [s⁻¹] | kon [25] [M⁻¹ s⁻¹] | Binder | other results |
| --- | --- | --- | --- | --- | --- | --- | --- | --- | --- | --- | --- | --- | --- |
| 0.19 | 0.16 | 0.27 | 10.1 | 0.27 | 0.000201 | 747000 | 0.41 | 0.000339 | – | – | – | ACI-8016-2610H7D3-AB1 (antibody, V domains shown) VH: QVQLQQSGVELARPGASVKLSCKASGFSFTSYGISWVKQKTGQGLEWIGQIYLRSSNTYYSEKFKDRATLTADKSSSTVYMELRSLTSEDSAVYFCARYYGSSSDYWGQGTTLTVSS VL: DIQMNQSPSSLSASLGDTITINCHASQNINVWLSWYQQKPGNIPKVLINQASNLQTDVPTRFSGSGSGTDFKLIISRLQSEDIATYYCQQGQSYPWTFGGGTKLEIK | Mouse ASC polymerization assay, IC50 (mouse ASC [5]): 60.4 nM; IL-1β release, human monocytic cell line, IC50 [6]: 25.2 nM; % IL-1β inhibition, mouse primary microglia, 420 nM mAb (mouse ASC [7]): 87.3%; kon (mouse ASC [9]): 831000 M⁻¹ s⁻¹; normalized binding response (PYD domain of human ASC [10]): 2%; normalized binding response (PYD domain of human ASC [11]): 0%; normalized binding response (PYD domain of human ASC [12]): 1%; normalized binding response (PYD domain of human ASC [13]): 2%; normalized binding response (PYD domain of human ASC [14]): 73%; normalized binding response (PYD domain of human ASC [15]): 6%; normalized binding response (PYD domain of human ASC [16]): 1%; normalized binding response (PYD domain of human ASC [17]): 0%; normalized binding response (PYD domain of human ASC [18]): 80%; binding result (CARD domain of human ASC [19]): no binding |
| 0.12 | 0.13 | 0.15 | 5.8 | – | – | – | 10.3 | 0.00264 | – | – | – | ACI-8016-23E5F7-AB1 (antibody, V domains shown, also called 936.23E5F7) VH: QVQLQQSEAELARPGASVKLSCKASGYTFTSYGIFWVKQRTGQGLEWIGEIYPRSGNTYYNENFRDKATLTADKSSSTAYMELRSLTSEDSAVYFCARQRDDYWGQGTTLTVSS VL: QIVLTQSPAIMSASPGEKVTITCSVSSSVSYMYWFQQKPGTSPKVWIYSTSNLASGVPARFSGRGSGTSYSLTISRMEAEDAATYYCQQRSSYPFTFGSGTKLEIK | binding result (CARD domain of human ASC [20]): no binding; Mouse ASC polymerization assay, IC50 (mouse ASC [5]): 21 nM; % IL-1β inhibition, mouse primary microglia, 420 nM mAb (mouse ASC [7]): 69.4%; kon (mouse ASC [9]): 261000 M⁻¹ s⁻¹; Kd [21]: 27.1 nM |
| 0.1 | 0.06 | – | 3.1 | < 0.01 | < 1e-05 | 96000 | – | – | < 0.01 | 2.3e-07 | 74000 | ACI-8016-401H9B7-AB1 (antibody, V domains shown) VH: QIQLVQSGPELKKPGETVKISCKASGYTFTKYGMNWVKQAPGKGLKRMGWINTYTGEPTYSDDFKGRFAFSLETSASTAYLQINNLKNDDTATYFCARLGYANSFDSWGQGTTLTVSS VL: DIQMTQSPASLSATVGETVTITCRASENIYTYLAWYQQKQGKSPQLLVHNANTLVEGVPSRFSGSGSGTQFSLKINSLEPEDFGNYYCQYHYGSPYTFGGGTKLEIK | IL-1β release, human monocytic cell line, IC50 [6]: 6.94 nM; normalized binding response (PYD domain of human ASC [10]): 90%; normalized binding response (PYD domain of human ASC [11]): 83%; normalized binding response (PYD domain of human ASC [12]): 24%; normalized binding response (PYD domain of human ASC [13]): 95%; normalized binding response (PYD domain of human ASC [14]): 3%; normalized binding response (PYD domain of human ASC [15]): 47%; normalized binding response (PYD domain of human ASC [16]): 108%; normalized binding response (PYD domain of human ASC [17]): 112%; normalized binding response (PYD domain of human ASC [18]): 3%; binding result (CARD domain of human ASC [29]): no binding |
| 0.05 | – | – | – | 0.13 | 2.2e-05 | 160000 | – | – | 0.01 | 1.2e-06 | 92000 | ACI-8016-413G10A5-AB1 (antibody, V domains shown) VH: QVQLKESGPGLVAPSQSLSITCTVSGFSLTSYGVHWVRQPPGKGLEWLGVIWAGGSTNYNSALMSRLSISKDNSKSQVFLKMNSLQTADTAMYYCARWDYVNSYEAMDYWGQGTSVTVSS VL: DVVMTQTPLSLPVSLGDQASISCRSSQSLVHSNGNTYLHWYLQKPGQSPKLLIYKVSNRFSGVPDRFSGSGSGTDFTLKISRVEAEDLGVYFCSQSTHVPYTFGGGTKLEIK | binding result (PYD domain of human ASC [2]): no binding; EC50 (CARD domain of human ASC [20]): 0.06 nM; binding result (mouse ASC [30]): no binding |
